PMC9935876, “Structure of the planar cell polarity cadherins Fat4 and Dachsous1” (Nature Communications, 2023)

B1: human Dchs1(EC1–4) [human] / human Fat4(EC1–4) [human] (parent complex)
chain 1: DPQAGSLDLQIDEEQPAGTLIGDISAGLPAGTAAPLMYFISAQEGSGVGTDLAIDEHSGVVRTARVLDREQRDRYRFTAVTPDGATVEVTVRVADINDHAPAFPQARAALQVPEHTAFGTRYPLEPARDADAGRLGTQGYALSGDGAGETFRLETRPGPDGTPVPELVVTGELDRENRSHYMLQLEAYDGGSPPRRAQALLDVTLLDINDHAPAFNQSRYHAVVSESLAPGSPVLQVFASDADAGVNGAVTYEINRRQSEGDGPFSIDAHTGLLQLERPLDFEQRRVHELVVQARDGGAHPELGSAFVTVHVRDANDNQPSMTVIFLSADGSPQVSEAAPPGQLVARISVSDPDDGDFAHVNVSLEGGEGHFALSTQDSVIYLVCVARRLDREERDAYNLRVTATDSGSPPLRAEAAFVLHVTDVNDNAPAF
chain 2: DPAEPRQVFQVLEEQPPGTLVGTIQTRPGFTYRLSESHALFAINSSTGALYTTSTIDRESLPSDVINLVVLSSAPTYPTEVRVLVRDLNDNAPVFPDPSIVVTFKEDSSSGRQVILDTATDSDIGSNGVDHRSYRIIRGNEAGRFRLDITLNPSGEGAFLHLVSKGGLDREVTPQYQLLVEVEDKGEPKRRGYLQVNVTVQDINDNPPVFGSSHYQAGVPEDAVVGSSVLQVAAADADEGTNADIRYRLQDEGTPFQMDPETGLITVREPLDFEARRQYSLTVQAMDRGVPSLTGRAEALIQLLDVNDNDPVVKFRYFPATSRYASVDENAQVGTVVALLTVTDADSPAANGNISVQILGGNEQRHFEVQSSKVPNLSLIKVASALDRERIPSYNLTVSVSDNYGAPPGAAVQARSSVASLVIFVNDINDHPPVF
B2: human Fat4(EC1–4) [human] / human Dchs1(EC1–4) [human] (parent complex)
chain 1: B1 chain 2
chain 2: B1 chain 1

Variants of: B1
Assay: ITC; parent: 1; read off a plot

| ratio to parent | Variant |
| --- | --- |
| ~4.4 | chain 1 F39A |

Variants of: B2
Assay: ITC; parent: 1; read off a plot

| ratio to parent | Variant |
| --- | --- |
| ~1.8 | chain 1 F318A |
